From publication PMC4506123, “Identification of an Isothiocyanate on the HypEF Complex Suggests a Route for Efficient Cyanyl–Group Channeling during [NiFe]–Hydrogenase Cofactor Generation” (PLoS ONE, 2015) come the findings set out here.

The target of this experiment is T1, HypF (E. coli, UniProt P30131 1-750).
T1 construct: HypF, carbamoyltransferase of [NiFe]-hydrogenase maturation of E. coli; 82 kDa; also called His-tagged HypF; auxiliary protein HypF; source: isolated from E. coli, purified as described previously [21] with 10 mM magnesium acetate in all buffers
T1 sequence (looked up): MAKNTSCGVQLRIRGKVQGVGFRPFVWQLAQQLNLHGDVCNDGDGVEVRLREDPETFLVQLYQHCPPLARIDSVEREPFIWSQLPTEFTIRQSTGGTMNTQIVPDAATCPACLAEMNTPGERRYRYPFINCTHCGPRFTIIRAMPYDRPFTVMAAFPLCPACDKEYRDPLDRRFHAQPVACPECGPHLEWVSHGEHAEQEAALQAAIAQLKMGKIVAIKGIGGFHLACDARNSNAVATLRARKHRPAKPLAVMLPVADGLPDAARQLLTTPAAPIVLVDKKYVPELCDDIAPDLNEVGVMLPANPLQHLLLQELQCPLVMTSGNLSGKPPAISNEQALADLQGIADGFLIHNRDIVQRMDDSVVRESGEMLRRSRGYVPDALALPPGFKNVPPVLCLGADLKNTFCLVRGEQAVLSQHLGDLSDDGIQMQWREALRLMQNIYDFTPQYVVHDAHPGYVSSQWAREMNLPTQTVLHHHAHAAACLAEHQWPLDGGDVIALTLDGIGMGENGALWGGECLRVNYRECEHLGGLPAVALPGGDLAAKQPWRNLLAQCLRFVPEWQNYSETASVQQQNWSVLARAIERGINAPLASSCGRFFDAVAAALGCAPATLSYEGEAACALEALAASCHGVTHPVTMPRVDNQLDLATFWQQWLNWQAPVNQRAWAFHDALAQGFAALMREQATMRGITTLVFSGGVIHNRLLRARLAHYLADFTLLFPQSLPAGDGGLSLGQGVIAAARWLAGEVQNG
The experiment can be described thus: native gel or EMSA; native PAGE as described earlier [35,36]; isolated HypE and HypF; no further conditions told for this experiment. Particulars: both partners purified.

B1: HypE (natural protein, E. coli, UniProt P24193 1-336, looked up)
chain: MNNIQLAHGSGGQAMQQLINSLFMEAFANPWLAEQEDQARLDLAQLVAEGDRLAFSTDSYVIDPLFFPGGNIGKLAICGTANDVAVSGAIPRYLSCGFILEEGLPMETLKAVVTSMAETARAAGIAIVTGDTKVVQRGAVDKLFINTAGMGAIPANIHWGAQTLTAGDVLLVSGTLGDHGATILNLREQLGLDGELVSDCAVLTPLIQTLRDIPGVKALRDATRGGVNAVVHEFAAACGCGIELSEAALPVKPAVRGVCELLGLDALNFANEGKLVIAVERNAAEQVLAALHSHPLGKDAALIGEVVERKGVRLAGLYGVKRTLDLPHAEPLPRIC
notes: HypE, [NiFe]-hydrogenase maturation protein of E. coli; 36 kDa monomer; C-terminal cysteine C336 in E. coli nomenclature; also called His-tagged HypE; auxiliary protein HypE; source: isolated from E. coli, purified as described previously [21] with 10 mM magnesium acetate in all buffers
B1: the binding result is “binds”.
